Laboratory results reported in patent publication US20260137799A1, “ANTI-MUC1* ANTIBODY DRUG COMPLEXES AND USES THEREOF” (Minerva Biotechnologies Corporation, priority 2023, published 2026).

Assays:
PSMGFR C-10 peptide = molecular target: T1, PSMGFR C-10 peptide; assay: ELISA on PSMGFR C-10 peptide; Table 4 grade
T1 peptide: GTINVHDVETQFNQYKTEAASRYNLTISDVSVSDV

MUC1*45 = MUC1*45 (UniProt P15941 1110-1255); assay: cell-based or functional assay
[1] = system: breast cancer, pancreatic cancer, and lung cancer cell lines; assay: Cytotoxicity of ADCs with additional linkers and toxins (FIGS. 30-31); format: cell-based; settings: breast cancer and pancreatic cancer cell
Procedure: FIG. 30 is a table showing cytotoxicity of the indicated MUC1* ADCs against indicated cancer cells. IC50 values were determined from xCELLigence data. FIG. 30 discloses “GGFG” as SEQ ID NO: 160, “GGGG” as SEQ ID NO: 161, “GGVA” as SEQ ID NO: 162, “GGVG” as SEQ ID NO: 163.
FIG. 31 is a table showing cytotoxicity of the indicated MUC1* ADCs against indicated cancer cells. IC50 values were determined from PrestoBlue data.
An anti-MUC1* antibody was conjugated to several toxins via a number of different linkers (compounds VIII-XXII).

T47D-MUC1* = assay: PrestoBlue live/dead cell assay, T47D-MUC1*; format: cell-based, human; settings: Presto Blue; 72-120 hour incubation
Procedure: (§1) Another method of measuring the killing activity of ADCs against target cancer cells is to use the PrestoBlue live/dead cell assay (ThermoFisher). Target cancer cells were seeded in a black-walled, clear-bottom 96-well tissue culture plate at a density of 5000 cells/well (100 μL of a 50,000 cells/mL stock) and incubated overnight in a 37° C./5% CO2 incubator. ADCs were prepared as a 2× solution in corresponding cancer cell growth media and 100 μL of each concentration was added to target cancer cells. As a positive control (100% killing) cancer cells were treated with 1 μM Taxol instead of ADC. After 72 hour-120 hour incubation in a 37° C./5% CO2 incubator, cell viability was measure by fluorescence using the PrestoBlue HS assay (ThermoFisher). Briefly, after the incubation period, 20 μL of PrestoBlue HS solution was added. Fluorescence (Ex 560 nm/Em 590 nm) was recorded after 30-90 min. incubation using a Tecan plate reader. Percentage viability was determined by PrestoBlue HS staining and normalized to 1 μM taxol treated cells.
(§2) The normalized fluorescence values were imported into the graph program, Sigma Plot, data plotted as ADC concentration versus normalized fluorescence signal and curve fitted using a four-parameter Hill equation: f=y0+a*x^b/(c^b+x^b) to calculate IC50 values. IC50 values for the ADCs were generally consistent between the xCELLigence and Presto Blue assays.

HPAFII = assay: PrestoBlue live/dead cell assay, HPAFII; format: cell-based, human; settings: Presto Blue; 72-120 hour incubation
Procedure: as §1, §2

HPAFII-MUC1* = assay: PrestoBlue live/dead cell assay, HPAFII-MUC1*; format: cell-based, human; settings: Presto Blue; 72-120 hour incubation
Procedure: as §1, §2

[2] = Toxicity in animal studies; format: in vivo; settings: each antibody incorporated into several ADC formats
Source text: Exatecans and deruxtecans can also have bystander effects. […] It is not completely clear whether these side effects are due to the payload or to the HER2 target, which is also expressed on normal lung and normal heart. The first two patients treated with a HER2 targeting CAR T cell product died shortly after the infusion. […] More recently, yet another patient died after being treated with a different HER2-targeting ADC. […] 32CB1, C2 and 20A10 unexpectedly have an extremely high degree of cancer specificity and elicited no toxicities in animal studies, where each antibody was incorporated into several ADC formats.

T47D = assay: xCELLigence impedance cytotoxicity, T47D; format: cell-based, human; settings: Example 9 (FIGS. 35-36); average over batches for DXd ADCs; read-out: IC50 for killing of breast cancer T47D-wt cells
Procedure: (§3) An xCELLigence RTCA MP Instrument (Agilent) was used to assess real-time killing of target cancer cells). In the xCELLigence system, target cancer cells, which are adherent, are plated onto electrode array 96-well plates. Adherent cells insulate the electrode and increase the impedance. The number of adherent cancer cells is directly proportional to impedance. […] Therefore, increasing impedance reflects the growth of the cancer cells and decreasing impedance reflects the killing of the cancer cells.
(§4) Target Cancer cells (Table 9) were seeded onto a multi-electrode well plate at a density of 5000 cells/well (100 μL of a 50,000 cells/mL stock) and incubated for 24 hr in a 37° C./5% CO2 incubator. ADCs were prepared as a 2× solution in corresponding growth media and 100 μL of each concentration was added to target cells. As a positive control (100% cell killing) cells were treated with either 1% triton or 1 μM Taxol instead of ADC. After 40-120 hours incubation in a 37° C./5% CO2 incubator cell killing was assessed. In this assay, impedance is measured in real-time. When the adherent cancer cells are killed and come off the electrode surface, impedance (insulation) decreases.

NCI-H1975 = assay: xCELLigence impedance cytotoxicity, NCI-H1975; format: cell-based, human; settings: Example 9 (FIGS. 35-36); read-out: IC50 for killing of H1975-wt cells
Procedure: as §3, §4

[3] = system: CFPAC1-wt pancreatic cancer cell line; assay: xCELLigence impedance cytotoxicity, CFPAC1; format: cell-based, human; settings: Example 9 (FIGS. 35-36); read-out: IC50, CFPAC1-wt pancreatic cancer cells
Procedure: as §3, §4
(§5) To directly compare the C2 and 3C2B1 anti-MUC1* antibodies as ADC targeting domains, a panel of MUC1* positive cancer cell lines representing different cancer types were treated with C2-deruxtecan versus 3C2B1-deruxtecan (FIG. 35) or C2-MC-VA-PAB-exatecan versus 3C2B1-MC-VA-PAB-exatecan (FIG. 36). In some cases, the cancer cells were engineered to express high levels of MUC1*45.

[4] = system: H2110-wt lung cancer cell line; assay: xCELLigence impedance cytotoxicity, H2110; format: cell-based, human; settings: Example 9 (FIGS. 35-36); read-out: IC50, lung cancer H2110-wt cells
Procedure: as §3, §4, §5

B1: anti-MUC1* antibody 20A10 (antibody, IgG2b, V domains shown)
VH: EVMLVESGGGLVKPGGSLKLSCAASGFTFSTYAMSWIRQTPEKRLEWVASIGRAGSTYYSDSVKGRFTISRDNVRNILYLQMSSLRSEDTAMYYCARGPIYNDYDEFAYWGQGTLVTVSA
VL: NIMMTQSPSSLAVSAGEKVTMSCKSSQSVLYSSNQKNYLAWYQQKPGQSPKLLIYWASTRESGVPDRFTGSGSGTDFTLTISSVQAEDLAVYYCHQYLSSLTFGAGTKLELKA
notes: Humanised form is m25
- binding result (PSMGFR C-10 peptide): no binding

B2: C2-deruxtecan (antibody, mouse IgG1, kappa)
VH: EVQLEESGGGLVKPGGSLKLSCAASGFTFSGYAMSWVRQTPEKRLEWVATISSGGTYIYYPDSVKGRFTISRDNAKNTLYLQMSSLRSEDTAMYYCARLGGDNYYEYFDVWGAGTTVTVSSAKTTPPSVYAKTTPPSVYPLAPGSAAQTNSMVTLGCLVKGYFPEPVTVTWNSGSLSSGVHTFPAVLQSDLYTLSSSVTVPSSTWPSETVTCNVAHPASSTKVDKKIVPRDCGCKPCICTVPEVSSVFIFPPKPKDVLTITLTPKVTCVVVDISKDDPEVQFSWFVDDVEVHTAQTQPREEQFNSTFRSVSELPIMHQDWLNGKEFKCRVNSAAFPAPIEKTISKTKGRPKAPQVYTIPPPKEQMAKDKVSLTCMITDFFPEDITVEWQWNGQPAENYKNTQPIMDTDGSYFVYSKLNVQKSNWEAGNTFTCSVLHEGLHNHHTEKSLSHSPGK
VL: DIVITQSTASLGVSLGQRATISCRASKSVSTSGYSYMHWYQQRPGQPPKLLIYLASNLESGVPARFSGSGSGTDFTLNIHPVEEEDAATYYCQHSRELPFTFGGGTKLEIKRADAAPTVSADAAPTVSIFPPSSEQLTSGGASVVCFLNNFYPKDINVKWKIDGSERQNGVLNSWTDQDSKDSTYSMSSTLTLTKDEYERHNSYTCEATHKTSTSPIVKSFNRNEC
modifications: deruxtecan (MC-GGFG-AM-DXd) on reduced cysteine thiols of the antibody, sites not stated; deruxtecan (MC-GGFG-AM-DXd) on reduced cysteine thiols of the antibody, sites not stated; average DAR 7.7
- IC50, killing of H1975 lung cancer cells engineered to express MUC1*45 (xCELLigence) (MUC1*45): 54 nM
- IC50, killing of T47D breast cancer cells engineered to express MUC1*45 (xCELLigence) (MUC1*45): 2 nM

B3: C2 MC-VA-AM DXd (conjugate, listed as Mus sp.)
heavy: EVQLEESGGGLVKPGGSLKLSCAASGFTFSGYAMSWVRQTPEKRLEWVATISSGGTYIYYPDSVKGRFTISRDNAKNTLYLQMSSLRSEDTAMYYCARLGGDNYYEYFDVWGAGTTVTVSSAKTTPPSVYAKTTPPSVYPLAPGSAAQTNSMVTLGCLVKGYFPEPVTVTWNSGSLSSGVHTFPAVLQSDLYTLSSSVTVPSSTWPSETVTCNVAHPASSTKVDKKIVPRDCGCKPCICTVPEVSSVFIFPPKPKDVLTITLTPKVTCVVVDISKDDPEVQFSWFVDDVEVHTAQTQPREEQFNSTFRSVSELPIMHQDWLNGKEFKCRVNSAAFPAPIEKTISKTKGRPKAPQVYTIPPPKEQMAKDKVSLTCMITDFFPEDITVEWQWNGQPAENYKNTQPIMDTDGSYFVYSKLNVQKSNWEAGNTFTCSVLHEGLHNHHTEKSLSHSPGK
light: DIVITQSTASLGVSLGQRATISCRASKSVSTSGYSYMHWYQQRPGQPPKLLIYLASNLESGVPARFSGSGSGTDFTLNIHPVEEEDAATYYCQHSRELPFTFGGGTKLEIKRADAAPTVSADAAPTVSIFPPSSEQLTSGGASVVCFLNNFYPKDINVKWKIDGSERQNGVLNSWTDQDSKDSTYSMSSTLTLTKDEYERHNSYTCEATHKTSTSPIVKSFNRNEC
modifications: conjugated MC-VA-AM DXd linker-toxin
- IC50 compared to deruxtecan ADC [1]: three-fold lower

B4: C2 MC-VC-PAB MMAF (conjugate, listed as Mus sp.)
heavy: EVQLEESGGGLVKPGGSLKLSCAASGFTFSGYAMSWVRQTPEKRLEWVATISSGGTYIYYPDSVKGRFTISRDNAKNTLYLQMSSLRSEDTAMYYCARLGGDNYYEYFDVWGAGTTVTVSSAKTTPPSVYAKTTPPSVYPLAPGSAAQTNSMVTLGCLVKGYFPEPVTVTWNSGSLSSGVHTFPAVLQSDLYTLSSSVTVPSSTWPSETVTCNVAHPASSTKVDKKIVPRDCGCKPCICTVPEVSSVFIFPPKPKDVLTITLTPKVTCVVVDISKDDPEVQFSWFVDDVEVHTAQTQPREEQFNSTFRSVSELPIMHQDWLNGKEFKCRVNSAAFPAPIEKTISKTKGRPKAPQVYTIPPPKEQMAKDKVSLTCMITDFFPEDITVEWQWNGQPAENYKNTQPIMDTDGSYFVYSKLNVQKSNWEAGNTFTCSVLHEGLHNHHTEKSLSHSPGK
light: DIVITQSTASLGVSLGQRATISCRASKSVSTSGYSYMHWYQQRPGQPPKLLIYLASNLESGVPARFSGSGSGTDFTLNIHPVEEEDAATYYCQHSRELPFTFGGGTKLEIKRADAAPTVSADAAPTVSIFPPSSEQLTSGGASVVCFLNNFYPKDINVKWKIDGSERQNGVLNSWTDQDSKDSTYSMSSTLTLTKDEYERHNSYTCEATHKTSTSPIVKSFNRNEC
modifications: MC-VC-PAB-MMAF
notes: ADC: antibody C2 conjugated via MC-VC-PAB linker to MMAF
- IC50 (T47D-MUC1*): 1.3 nM
- IC50 (HPAFII): 100 nM
- IC50 (HPAFII-MUC1*): 90 nM

B5: 20A10: anti-MUC1* monoclonal antibody, IgG2b isotype (antibody)
VH: EVMLVESGGGLVKPGGSLKLSCAASGFTFSTYAMSWIRQTPEKRLEWVASIGRAGSTYYSDSVKGRFTISRDNVRNILYLQMSSLRSEDTAMYYCARGPIYNDYDEFAYWGQGTLVTVSAAKTTPPSVYPLAPGCGDTTGSSVTLGCLVKGYFPESVTVTWNSGSLSSSVHTFPALLQSGLYTMSSSVTVPSSTWPSQTVTCSVAHPASSTTVDKKLEPSGPISTINPCPPCKECHKCPAPNLEGGPSVFIFPPNIKDVLMISLTPKVTCVVVDVSEDDPDVRISWFVNNVEVHTAQTQTHREDYNSTIRVVSALPIQHQDWMSGKEFKCKVNNKDLPSPIERTISKIKGLVRAPQVYILPPPAEQLSRKDVSLTCLVVGFNPGDISVEWTSNGHTEENYKDTAPVLDSDGSYFIYSKLDIKTSKWEKTDSFSCNVRHEGLKNYYLKKTISRSPGK
VL: NIMMTQSPSSLAVSAGEKVTMSCKSSQSVLYSSNQKNYLAWYQQKPGQSPKLLIYWASTRESGVPDRFTGSGSGTDFTLTISSVQAEDLAVYYCHQYLSSLTFGAGTKLELKADAAPTVSIFPPSSEQLTSGGASVVCFLNNFYPKDINVKWKIDGSERQNGVLNSWTDQDSKDSTYSMSSTLTLTKDEYERHNSYTCEATHKTSTSPIVKSFNRNEC
- toxicities in animal studies [2]: no toxicities

B6: 3C2B1-MC-VA-PAB-exatecan (antibody, V domains shown)
VH: EVMLVESGGGLVKPGGSLKLSCAASGITFSTYTMSWVRQTPEKRLEWVATISTGGDKTYYSDSVKGRFTISRDNAKNNLYLQMSSLRSEDTALYYCARGTTAMYYYAMDYWGQGTSVTVSS
VL: DIVLTQSPASLAVSLGQRATISCRASKSISTSDYNYIHWYQQKPGQPPKLLIYLASNLESGVPARFSGSGSGTDFTLNIHPVEEEDAATYYCQHSRELPLTFGAGTKLELK
modifications: MC-VA-PAB-exatecan on reduced cysteine thiols of the antibody, sites not stated; MC-VA-PAB-exatecan on reduced cysteine thiols of the antibody, sites not stated; DAR 5.2
- IC50, killing of H1975 cells engineered to express MUC1*45 (xCELLigence) (MUC1*45): 141 nM
- IC50, killing of T47D cells engineered to express more MUC1*45 (xCELLigence) (MUC1*45): 31 nM
- IC50 (T47D): 77 nM
- IC50 (NCI-H1975): 189 nM
- IC50 [3]: 40 nM
- IC50 [4]: 113 nM
